Test results: patent US20260049138A1 (Chugai, published 2026)
Residue numbers refer to the chain shown, from its start. In names and notes the source's numbering stands.

B1: GLS3000 H27dP one-arm antibody (antibody, human IgG1, kappa, L234A L235A, N297A, name in Kabat numbering)
heavy: QVQLVESGGGVVQPGRSLRLSCAASGFTFSNAWMHWVRQAPGKGLEWVAQIKAKSNNYATYYAESVKGRFTISRDDSKNSLYLQMNSLKTEDTAVYYCRYVHYGAYYGVDAWGQGTTVTVSSASTKGPSVFPLAPSSKSTSGGTAALGCLVKDYFPEPVTVSWNSGALTSGVHTFPAVLQSSGLYSLSSVVTVPSSSLGTQTYICNVNHKPSNTKVDKKVEPKSCDKTHTCPPCPAPEAAGGPSVFLFPPKPKDTLMISRTPEVTCVVVDVSHEDPEVKFNWYVDGVEVHNAKTKPREEQYASTYRVVSVLTVLHQDWLNGKEYKCKVSNKALPAPIEKTISKAKGQPREPQVYTLPPSRCELTKNQVSLSCAVKGFYPSDIAVEWESNGQPENNYKTTPPVLDSDGSFFLVSKLTVDKSRWQQGNVFSCSVMHEALHNHYTQKSLSLSPDYKDDDDK
chain: EPKSSDKTHTCPPCPAPELLGGPSVFLFPPKPKDTLMISRTPEVTCVVVDVSHEDPEVKFNWYVDGVEVHNAKTKPREEQYNSTYRVVSVLTVLHQDWLNGKEYKCKVSNKALPAPIEKTISKAKGQPREPQVCTLPPSRDELTKNQVSLWCLVKGFYPSDIAVEWESNGQPENNYKTTPPVLDSDGSFFLYSKLTVDKSRWQQGNVFSCSVMHEALHNRYTQKSLSLSP
light: DIVMTQSPLSLPVTPGEPASISCRSSQSLVPSNRNTYLHWYQQKPGQAPRLLIYKVSNRFSGVPDRFSGSGSGTDFTLKISRVEAEDVGVYYCGQGTQVPYTFGQGTKLEIKRTVAAPSVFIFPPSDEQLKSGTASVVCLLNNFYPREAKVQWKVDNALQSGNSQESVTEQDSKDSTYSLSSTLTLSKADYEKHKVYACEVTHQGLSSPVTKSFNRGEC
B2: GLS3000 H34L one-arm antibody (antibody, human IgG1, kappa, L234A L235A, N297A, name in Kabat numbering)
heavy: B1 heavy
chain: B1 chain
light: B1 light with P31H, H39L
B3: GLS3000 K50E one-arm antibody (antibody, human IgG1, kappa, L234A L235A, N297A, name in Kabat numbering)
heavy: B1 heavy
chain: B1 chain
light: B1 light with P31H, K55E
B4: GLS3000 H34P one-arm antibody (antibody, human IgG1, kappa, L234A L235A, N297A, name in Kabat numbering)
heavy: B1 heavy
chain: B1 chain
light: B1 light with P31H, H39P
B5: GLS3000 H34Q one-arm antibody (antibody, human IgG1, kappa, L234A L235A, N297A, name in Kabat numbering)
heavy: B1 heavy
chain: B1 chain
light: B1 light with P31H, H39Q
B6: GLS3000 K50R one-arm antibody (antibody, human IgG1, kappa, L234A L235A, N297A, name in Kabat numbering)
heavy: B1 heavy
chain: B1 chain
light: B1 light with P31H, K55R
B7: GLS3000 H34Y one-arm antibody (antibody, human IgG1, kappa, L234A L235A, N297A, name in Kabat numbering)
heavy: B1 heavy
chain: B1 chain
light: B1 light with P31H, H39Y
B8: GLS3000 K50G one-arm antibody (antibody, human IgG1, kappa, L234A L235A, N297A, name in Kabat numbering)
heavy: B1 heavy
chain: B1 chain
light: B1 light with P31H, K55G
B9: GLS3000 K50P one-arm antibody (antibody, human IgG1, kappa, L234A L235A, N297A, name in Kabat numbering)
heavy: B1 heavy
chain: B1 chain
light: B1 light with P31H, K55P
B10: GLS3000 H34S one-arm antibody (antibody, human IgG1, kappa, L234A L235A, N297A, name in Kabat numbering)
heavy: B1 heavy
chain: B1 chain
light: B1 light with P31H, H39S
B11: GLS3000 H27dR one-arm antibody (antibody, human IgG1, kappa, L234A L235A, N297A, name in Kabat numbering)
heavy: B1 heavy
chain: B1 chain
light: B1 light with P31R
B12: GLS3000 K50A one-arm antibody (antibody, human IgG1, kappa, L234A L235A, N297A, name in Kabat numbering)
heavy: B1 heavy
chain: B1 chain
light: B1 light with P31H, K55A
B13: GLS3000 H27dY one-arm antibody (antibody, human IgG1, kappa, L234A L235A, N297A, name in Kabat numbering)
heavy: B1 heavy
chain: B1 chain
light: B1 light with P31Y
B14: GLS3000 H34I one-arm antibody (antibody, human IgG1, kappa, L234A L235A, N297A, name in Kabat numbering)
heavy: B1 heavy
chain: B1 chain
light: B1 light with P31H, H39I
B15: GLS3000 H34A one-arm antibody (antibody, human IgG1, kappa, L234A L235A, N297A, name in Kabat numbering)
heavy: B1 heavy
chain: B1 chain
light: B1 light with P31H, H39A
B16: GLS3000 H34F one-arm antibody (antibody, human IgG1, kappa, L234A L235A, N297A, name in Kabat numbering)
heavy: B1 heavy
chain: B1 chain
light: B1 light with P31H, H39F
B17: GLS3000 H27dS one-arm antibody (antibody, human IgG1, kappa, L234A L235A, N297A, name in Kabat numbering)
heavy: B1 heavy
chain: B1 chain
light: B1 light with P31S
B18: GLS3000 H27dQ one-arm antibody (antibody, human IgG1, kappa, L234A L235A, N297A, name in Kabat numbering)
heavy: B1 heavy
chain: B1 chain
light: B1 light with P31Q
B19: GLS3000 H34N one-arm antibody (antibody, human IgG1, kappa, L234A L235A, N297A, name in Kabat numbering)
heavy: B1 heavy
chain: B1 chain
light: B1 light with P31H, H39N
B20: GLS3000 K50D one-arm antibody (antibody, human IgG1, kappa, L234A L235A, N297A, name in Kabat numbering)
heavy: B1 heavy
chain: B1 chain
light: B1 light with P31H, K55D
B21: GLS3000 H34R one-arm antibody (antibody, human IgG1, kappa, L234A L235A, N297A, name in Kabat numbering)
heavy: B1 heavy
chain: B1 chain
light: B1 light with P31H, H39R
B22: GLS3000 H34K one-arm antibody (antibody, human IgG1, kappa, L234A L235A, N297A, name in Kabat numbering)
heavy: B1 heavy
chain: B1 chain
light: B1 light with P31H, H39K
B23: GLS3000 H34M one-arm antibody (antibody, human IgG1, kappa, L234A L235A, N297A, name in Kabat numbering)
heavy: B1 heavy
chain: B1 chain
light: B1 light with P31H, H39M
B24: GLS3000 K50Q one-arm antibody (antibody, human IgG1, kappa, L234A L235A, N297A, name in Kabat numbering)
heavy: B1 heavy
chain: B1 chain
light: B1 light with P31H, K55Q
B25: GLS3000 H34V one-arm antibody (antibody, human IgG1, kappa, L234A L235A, N297A, name in Kabat numbering)
heavy: B1 heavy
chain: B1 chain
light: B1 light with P31H, H39V
B26: GLS3000 H27dV one-arm antibody (antibody, human IgG1, kappa, L234A L235A, N297A, name in Kabat numbering)
heavy: B1 heavy
chain: B1 chain
light: B1 light with P31V
B27: GLS3000 K50L one-arm antibody (antibody, human IgG1, kappa, L234A L235A, N297A, name in Kabat numbering)
heavy: B1 heavy
chain: B1 chain
light: B1 light with P31H, K55L
B28: GLS3000 H34T one-arm antibody (antibody, human IgG1, kappa, L234A L235A, N297A, name in Kabat numbering)
heavy: B1 heavy
chain: B1 chain
light: B1 light with P31H, H39T
B29: GLS3000 H27dW one-arm antibody (antibody, human IgG1, kappa, L234A L235A, N297A, name in Kabat numbering)
heavy: B1 heavy
chain: B1 chain
light: B1 light with P31W
B30: GLS3000 H34G one-arm antibody (antibody, human IgG1, kappa, L234A L235A, N297A, name in Kabat numbering)
heavy: B1 heavy
chain: B1 chain
light: B1 light with P31H, H39G
B31: GLS3000 H34W one-arm antibody (antibody, human IgG1, kappa, L234A L235A, N297A, name in Kabat numbering)
heavy: B1 heavy
chain: B1 chain
light: B1 light with P31H, H39W
B32: GLS3000 H34E one-arm antibody (antibody, human IgG1, kappa, L234A L235A, N297A, name in Kabat numbering)
heavy: B1 heavy
chain: B1 chain
light: B1 light with P31H, H39E
B33: GLS3000 H34D one-arm antibody (antibody, human IgG1, kappa, L234A L235A, N297A, name in Kabat numbering)
heavy: B1 heavy
chain: B1 chain
light: B1 light with P31H, H39D
B34: GLS3000 H27dT one-arm antibody (antibody, human IgG1, kappa, L234A L235A, N297A, name in Kabat numbering)
heavy: B1 heavy
chain: B1 chain
light: B1 light with P31T

The binders below were run against T1, CD3ε homodimer protein (human, UniProt P07766 23-126, limits assumed) (assay: SPR Biacore T200, CD3ε homodimer on chip;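 note: Light-chain single-residue variant antibodies injected over amine-coupled CD3ε homodimer on a CM4 chip at 25 °C, bound amount divided by that of the GLS3000-containing antibody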).
T1 construct: also called CD3 (CD3ε)
T1 sequence (P07766 23-126 limits assumed): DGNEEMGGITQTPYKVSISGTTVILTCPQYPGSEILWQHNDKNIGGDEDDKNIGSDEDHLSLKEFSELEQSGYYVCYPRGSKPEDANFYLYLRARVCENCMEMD
Method: Each one-amino acid altered form constructed, expressed, and purified in the paragraph (6-2) was evaluated using Biacore T200 (GE Healthcare Japan Corp.). An appropriate amount of CD3ε homodimer protein was immobilized onto Sensor chip CM4 (GE Healthcare Japan Corp.) by the amine coupling method. Then, the antibody having an appropriate concentration was injected thereto as an analyte and allowed to interact with the CD3ε homodimer protein on the sensor chip. Then, the sensor chip was regenerated by the injection of 10 mmol/L glycine-HCl (pH 1.5). The assay was conducted at 25° C., and HBS-EP+ (GE Healthcare Japan Corp.) was used as a running buffer. […] Each parameter was calculated using Biacore T200 Evaluation Software (GE Healthcare Japan Corp.).
Specifically, when the amount of the GLS3000-containing antibody bound was defined as X and the amount of the L chain one-amino acid altered form bound was defined as Y, a value of Z (ratio of amounts bound)=Y/X was used.

Question: B1 was tested. Which “ratio of amount bound vs unaltered GLS3000” value (“ratio of amount bound” for short) did it give?
Answer: The value was 0.24.

Question: B2 was tested. Which “ratio of amount bound” value did it give?
Answer: Its value is 0.59.

Question: For B3, which “ratio of amount bound” value is on record?
Answer: The value was 0.24.

Question: How did the “ratio of amount bound” value turn out when B4 was run?
Answer: Its value is 0.34.

Question: Which “ratio of amount bound” value does the source give for B5 here?
Answer: Its value is 0.25.

Question: With B6 as the binder, how does the “ratio of amount bound” value read?
Answer: The value was 0.5.

Question: B7 was tested. Which “ratio of amount bound” value did it give?
Answer: Its value is 0.59.

Question: Which “ratio of amount bound” value does the source give for B8 here?
Answer: The value was 0.16.

Question: How did the “ratio of amount bound” value turn out when B9 was run?
Answer: Its value is 0.3.

Question: B10 was tested. Which “ratio of amount bound” value did it give?
Answer: The value was 0.78.

Question: How did the “ratio of amount bound” value turn out when B11 was run?
Answer: Its value is 0.31.

Question: For B12, which “ratio of amount bound” value is on record?
Answer: Its value is 0.23.

Question: With B13 as the binder, how does the “ratio of amount bound” value read?
Answer: Its value is 0.64.

Question: With B14 as the binder, how does the “ratio of amount bound” value read?
Answer: Its value is 0.65.

Question: For B15, which “ratio of amount bound” value is on record?
Answer: Its value is 1.06.

Question: How did the “ratio of amount bound” value turn out when B16 was run?
Answer: Its value is 0.27.

Question: B17 was tested. Which “ratio of amount bound” value did it give?
Answer: Its value is 0.32.

Question: With B18 as the binder, how does the “ratio of amount bound” value read?
Answer: The value was 0.25.

Question: How did the “ratio of amount bound” value turn out when B19 was run?
Answer: The value was 0.65.

Question: B20 was tested. Which “ratio of amount bound” value did it give?
Answer: The value was 0.22.

Question: For B21, which “ratio of amount bound” value is on record?
Answer: The value was 0.2.

Question: With B22 as the binder, how does the “ratio of amount bound” value read?
Answer: The value was 2.17.

Question: Which “ratio of amount bound” value does the source give for B23 here?
Answer: Its value is 0.35.

Question: With B24 as the binder, how does the “ratio of amount bound” value read?
Answer: The value was 0.18.

Question: For B25, which “ratio of amount bound” value is on record?
Answer: The value was 0.85.

Question: How did the “ratio of amount bound” value turn out when B26 was run?
Answer: The value was 0.3.

Question: How did the “ratio of amount bound” value turn out when B27 was run?
Answer: Its value is 0.24.

Question: For B28, which “ratio of amount bound” value is on record?
Answer: Its value is 0.89.

Question: Which “ratio of amount bound” value does the source give for B29 here?
Answer: Its value is 0.39.

Question: How did the “ratio of amount bound” value turn out when B30 was run?
Answer: The value was 1.02.

Question: For B31, which “ratio of amount bound” value is on record?
Answer: The value was 0.24.

Question: Which “ratio of amount bound” value does the source give for B32 here?
Answer: The value was 0.23.

Question: How did the “ratio of amount bound” value turn out when B33 was run?
Answer: Its value is 0.22.

Question: Which “ratio of amount bound” value does the source give for B34 here?
Answer: The value was 0.29.
